Consider one substance from patent US11666664B2, “Self assembling molecules for targeted drug delivery” (The General Hospital Corporation, priority 2015, dated 2023).

A short description of this data set: Isoelectric point of expressed clathrin heavy chain preparation. To be noted: recombinant human clathrin isoform 2 heavy chain with 6His tag from E. coli. The format is physicochemical. The text has this:
The preparation yielded a protein with the following characteristics: […]

On to “PE1130119-1: Clathrin human isoform 2 heavy chain expressed in E. coli, soluble protein with 6His tag”, for which the “Isoelectric Point” value is recorded as 5.67.
